According to publication PMC12485025:

T1: p1 NTR (Tetrahymena, UniProt Q22VV9 1-150)
T1 sequence: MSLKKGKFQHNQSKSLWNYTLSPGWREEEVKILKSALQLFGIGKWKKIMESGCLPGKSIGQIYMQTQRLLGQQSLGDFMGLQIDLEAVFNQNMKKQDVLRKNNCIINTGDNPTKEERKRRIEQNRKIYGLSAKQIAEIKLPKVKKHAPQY

B1: umDNA 6-FAM (dsDNA)
DNA 1: AACTTTCTTAACATCTTAACTTTAACT
DNA 2: AGTTAAAGTTAAGATGTTAAGAAAGTT
B2: hmDNA 6-FAM (27ATrich_6mA_s / 27ATrich_6FAM_a) (dsDNA)
DNA 1: AACTTTCTTAACATCTTAACTTTAACT
DNA 2: AGTTAAAGTTAAGATGTTAAGAAAGTT
modifications: N6-methyl-dA at position 13 of strand 1

Target: T1, p1 NTR
Test: fluorescence polarization

Binder	Kd [nM]
B1	37
B2	35
